Measurements reported in patent US20240199757A1 (UNIVERSITY OF CHICAGO, published 2024).

B1: 1789 Fab (Fab, V domains shown)
VH: EVQLVESGGGLVQPGGSLRLSCAASGFNVSYSSIHWVRQAPGKGLEWVASISSSSGYTYYADSVKGRFTISADTSKNTAYLQMNSLRAEDTAVYYCARNYWGWYPFYYFAFDYWGQGTLVTV
VL: DIQMTQSPSSLSASVGDRVTITCRASQSVSSAVAWYQQKPGKAPKLLIYSASSLYSGVPSRFSGSRSGTDFTLTISSLQPEDFATYYCQQGWDYPITFGQGTKVEIKR
B2: 1789 IgG (antibody, V domains shown)
VH: EVQLVESGGGLVQPGGSLRLSCAASGFNVSYSSIHWVRQAPGKGLEWVASISSSSGYTYYADSVKGRFTISADTSKNTAYLQMNSLRAEDTAVYYCARNYWGWYPFYYFAFDYWGQGTLVTVSS
VL: B1 VL

Columns and labels:
[1] = molecular target: T1, human NT5E expressed on MDA-MB-231 cells (human, UniProt P21589 27-549); experiment: cell-based or functional assay
T1 sequence (looked up): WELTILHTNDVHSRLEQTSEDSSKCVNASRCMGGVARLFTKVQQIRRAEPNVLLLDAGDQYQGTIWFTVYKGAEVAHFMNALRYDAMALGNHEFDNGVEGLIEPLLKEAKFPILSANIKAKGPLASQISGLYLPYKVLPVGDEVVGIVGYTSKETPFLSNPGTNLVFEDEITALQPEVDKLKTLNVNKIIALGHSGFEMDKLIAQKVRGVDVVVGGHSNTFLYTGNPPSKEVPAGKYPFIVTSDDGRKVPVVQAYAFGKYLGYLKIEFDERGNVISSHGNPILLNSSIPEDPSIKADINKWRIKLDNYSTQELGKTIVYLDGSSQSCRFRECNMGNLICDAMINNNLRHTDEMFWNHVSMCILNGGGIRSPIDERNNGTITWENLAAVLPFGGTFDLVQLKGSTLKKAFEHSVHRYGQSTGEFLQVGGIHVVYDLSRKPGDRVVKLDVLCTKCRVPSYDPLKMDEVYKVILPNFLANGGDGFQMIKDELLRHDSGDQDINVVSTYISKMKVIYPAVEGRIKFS

[2] = molecular target: T1, human NT5E expressed on MDA-MB-231 cells; experiment: flow cytometry on MDA-MB-231 cells, 1 mM ATP
Procedure: Flow cytometry analysis of antibodies binding to human NT5E expressed on MDA-MB-231 cells in ATP-free condition (black) or in 1 mM ATP (red). Top panel: (left) 1780 Fab and (right) 1780 IgG titrations. […] Binding was measured at the indicated range of antibody concentrations and is expressed as mean±st. dev of median fluorescence intensity (MFI) of 1-2 replicates. Data were analyzed using OriginLab, and EC₅₀ values are shown next to the fitted curves.
Human MDA-MB-231 cells and murine 4T1 cells were grown to 90% confluency, detached with 5 mM EDTA for 15 min at 37° C. and then resuspended in 37° C. lx PBS (#10010031, Gibco) supplemented with 1% FBS and 1OpM ZnCl2. Separate working buffers (WB) of PBS and 1% FBS with or without fixed nucleotide concentrations were used throughout all washing steps to maintain constant condition. In 96-well plates (#3799, Costar), 0.2×10⁶ cells were added per well. The plates were spun at 500×g for 5 min and the supernatant was removed. Anti-NT5E antibodies were diluted to the desired concentration in 100 μL WB, added to the cells and the plates were incubated for 20 min at 37° C. Plates were spun and cells were washed twice with WB then spun a second time. Cells were stained with 100 μL of secondary antibody (Alexa Fluor 647 AffiniPure Goat Anti-Human IgG, F(ab′)2 fragment specific, #109-605-006, Jackson, 1:200) dilution and plates were incubated for 20 min at 37° C. Cells were washed twice with WB then fixed on ice with WB supplemented with 0.5% PFA. Fixing solution was removed by centrifugation and cells were resuspended in cold 1× PBS. Samples were analyzed by flow cytometry using CytoFLEX (Beckman Coulter) and mean fluorescence intensity (MFI) data was extracted using FlowJo software. Resulting binding data was plotted using OriginLab.

[3] = molecular target: T2, Full-length human NT5E (recombinant, in-house) (human, UniProt P21589 27-549); experiment: ELISA, biotinylated NT5E on neutravidin plate, 1 mM ATP
T2 construct: also called hNT5E; hNT5EWT
T2 sequence: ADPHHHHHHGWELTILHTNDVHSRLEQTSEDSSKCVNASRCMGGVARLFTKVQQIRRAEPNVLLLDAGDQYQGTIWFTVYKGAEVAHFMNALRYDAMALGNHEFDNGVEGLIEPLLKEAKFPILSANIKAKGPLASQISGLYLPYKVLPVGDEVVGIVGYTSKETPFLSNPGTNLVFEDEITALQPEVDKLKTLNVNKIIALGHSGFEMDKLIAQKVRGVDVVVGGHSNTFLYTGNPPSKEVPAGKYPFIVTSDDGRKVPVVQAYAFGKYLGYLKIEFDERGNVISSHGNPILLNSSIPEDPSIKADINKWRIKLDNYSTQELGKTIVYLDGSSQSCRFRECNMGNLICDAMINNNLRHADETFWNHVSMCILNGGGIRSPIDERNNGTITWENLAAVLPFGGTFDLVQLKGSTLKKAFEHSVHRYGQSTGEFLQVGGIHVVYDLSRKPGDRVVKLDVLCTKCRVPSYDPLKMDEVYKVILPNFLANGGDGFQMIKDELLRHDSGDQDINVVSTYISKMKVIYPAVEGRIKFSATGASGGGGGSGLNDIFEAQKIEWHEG
Procedure: (B) Protein ELISA: Protein-based multipoint ELISA was performed to estimate the affinity of the generated Fabs and IgGs to NT5E. The binding of the Fabs and IgGs to the closed form of NT5E were determined in ELISA buffer (HBST) supplemented with 10 μM zinc chloride and 1 mM ATP while the binding of the same to open form of NT5E were determined in ELISA buffer (HBST) without any cofactors. A fixed concentration of the immobilized target (50 nM) on ELISA plate was incubated with 3-fold serial dilutions of the purified Fabs and IgGs starting from 3 μM and 1 μM respectively for 15 min. The plates were washed and were subsequently incubated with a secondary HRP-conjugated anti-protein L monoclonal antibody (#32420, ThermoFisher, 1:6000 dilution). As with phage ELISA, the plates were again washed, developed with TMB substrate and quenched with 1.0 M HCl, and absorbance (Abs450) was determined. To determine the affinity (EC50), the data were fitted with a non-linear, 4-parameter logistic curve in OriginLab.

Binder	IC50 of NT5E phosphate production on MDA-MB-231 cells, +500 µM ATP [1]	EC50 [2]	EC50 [3]
B1	0.122 µM	0.053 µM	0.037 µM
B2	0.0022 µM	0.0094 µM	0.00086 µM
